Consider one molecule from PMC12564070, “Rapid and Quantitative Detection of TNF-α in Human Tears Using a Portable Electrochemiluminescence-Based Device”.

The target in series [1] is TNF-alpha (Homo sapiens, UniProt P01375 77-233). Description: electrochemiluminescence aptasensor (Apt-VSM/ITO electrode); linear 0.1-200 pg/mL, LOD 0.089 pg/mL; Ru luminophore/TPrA; Aptamer immobilized on VSM/ITO electrode, 0.5% BSA block, 0.1 M PBS rinse; binding buffer, pH and temperature not given in the material. The following applies: protein: commercial; chain copies: 3.
Chain of TNF-alpha (P01375 77-233): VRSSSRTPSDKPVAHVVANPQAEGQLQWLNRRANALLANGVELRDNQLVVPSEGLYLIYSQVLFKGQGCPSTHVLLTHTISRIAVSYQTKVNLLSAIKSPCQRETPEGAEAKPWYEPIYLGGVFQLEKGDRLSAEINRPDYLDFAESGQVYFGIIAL

Series [2] has as its target IL-6 (UniProt P05231 30-212). Description: electrochemiluminescence aptasensor (Apt-VSM/ITO electrode); 1 ng/mL IL-6, interference test; negligible ECL variation; Aptamer immobilized on VSM/ITO electrode, 0.5% BSA block, 0.1 M PBS rinse; binding buffer, pH and temperature not given in the material.

Chain of IL-6 (P05231 30-212): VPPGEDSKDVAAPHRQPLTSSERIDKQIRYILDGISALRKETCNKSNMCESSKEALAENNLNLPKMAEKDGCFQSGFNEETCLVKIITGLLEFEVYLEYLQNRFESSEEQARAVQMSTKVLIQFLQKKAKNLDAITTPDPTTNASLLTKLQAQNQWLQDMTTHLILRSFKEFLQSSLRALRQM

B1: TNF-alpha aptamer (ssDNA)
DNA: GCGCCACTACAGGGGAGCTGCCATTCGAATAGGTGGGCCGC
modifications: amino-modified (end not stated), coupled to GPTMS epoxy groups on VSM/ITO electrode
Regarding B1, the binding result in series [1] is “binds”; in series [2] it was “no binding”.
